Assay results taken from patent US20200283525A1 (published 2020).

B1: 9D9 DMAb original (antibody)
chain 1: EAKLQESGPVLVKPGASVKMSCKASGYTFTDYYMNWVKQSHGKSLEWIGVINPYNGDTSYNQKFKGKATLTVDKSSSTAYMELNSLTSEDSAVYYCARYYGSWFAYWGQGTLITVSTAKTTPPSVYPLAPGCGDTTGSSVTLGCLVKGYFPESVTVTWNSGSLSSSVHTFPALLQSGLYTMSSSVTVPSSTWPSQTVTCSVAHPASSTTVDKKLEPSGPISTINPCPPCKECHKCPAPNLEGGPSVFIFPPNIKDVLMISLTPKVTCVVVDVSEDDPDVQISWFVNNVEVHTAQTQTHREDYNSTIRVVSTLPIQHQDWMSGKEFKCKVNNKDLPSPIERTISKIKGLVRAPQVYILPPPAEQLSRKDVSLTCLVVGFNPGDISVEWTSNGHTEENYKDTAPVLDSDGSYFIYSKLNMKTSKWEKTDSFSCNVRHEGLKNYYLKKTISRSPGK
chain 2: DIVMTQTTLSLPVSLGDQASISCRSSQSIVHSNGNTYLEWYLQKPGQSPKLLIYKVSNRFSGVPDRFSGSGSGTDFTLKISRVEAEDLGVYYCFQGSHVPYTFGGGTKLEIKRADAAPTVSIFPPSSEQLTSGGASVVCFLNNFYPKDINVKWKIDGSERQNGVLNSWTDQDSKDSTYSMSSTLTLTKDEYERHNSYTCEATHKTSTSPIVKSFNRNEC
B2: 9D9 DMAb mod #3 (antibody)
chain 1: EVQLQQSGPVLVKPGASVKMSCKASGYTFTDYYMNWVKQSHGKSLEWIGVINPYNGDTSYNQKFKGKATLTVDKSSSTAYMELNSLTSEDSAVYYCARYYGSWFAYWGQGTLITVSTAKTTPPSVYPLAPGCGDTTGSSVTLGCLVKGYFPESVTVTWNSGSLSSSVHTFPALLQSGLYTMSSSVTVPSSTWPSQTVTCSVAHPASSTTVDKKLEPSGPISTINPCPPCKECHKCPAPNLEGGPSVFIFPPNIKDVLMISLTPKVTCVVVDVSEDDPDVQISWFVNNVEVHTAQTQTHREDYNSTIRVVSTLPIQHQDWMSGKEFKCKVNNKDLPSPIERTISKIKGLVRAPQVYILPPPAEQLSRKDVSLTCLVVGFNPGDISVEWTSNGHTEENYKDTAPVLDSDGSYFIYSKLNMKTSKWEKTDSFSCNVRHEGLKNYYLKKTISRSPGK
chain 2: DIVMTQTTLSLPVSLGDQASISCRSSQSIVHSNGNTYLEWYLQKPGQSPKLLIYKVSNRFSGVPDRFSGSGSGTDFTLKISRVEAEDLGVYYCFQGSHVPYTFGGGTKLEIKRADAAPTVSIFPPSSEQLTSGGASVVCFLNNFYPKDINVKWKIDGSERQNGVLNSWTDQDSKDSTYSMSSTLTLTKDEYERHNSYTCEATHKTSTSPIVKSFNRNEC
B3: 9D9 DMAb mod #4 (antibody)
chain 1: EVQLQQSGPVLVKPGASVKMSCKASGYTFTDYYMNWVKQSHGKSLEWIGVINPYNGDTSYNQKFKGKATLTVDKSSSTAYMELNSLTSEDSAVYYCARYYGSWFAYWGQGTLVTVSSAKTTPPSVYPLAPGCGDTTGSSVTLGCLVKGYFPESVTVTWNSGSLSSSVHTFPALLQSGLYTMSSSVTVPSSTWPSQTVTCSVAHPASSTTVDKKLEPSGPISTINPCPPCKECHKCPAPNLEGGPSVFIFPPNIKDVLMISLTPKVTCVVVDVSEDDPDVQISWFVNNVEVHTAQTQTHREDYNSTIRVVSTLPIQHQDWMSGKEFKCKVNNKDLPSPIERTISKIKGLVRAPQVYILPPPAEQLSRKDVSLTCLVVGFNPGDISVEWTSNGHTEENYKDTAPVLDSDGSYFIYSKLNMKTSKWEKTDSFSCNVRHEGLKNYYLKKTISRSPGK
chain 2: DIVMTQTTLSLPVSLGDQASISCRSSQSIVHSNGNTYLEWYLQKPGQSPKLLIYKVSNRFSGVPDRFSGSGSGTDFTLKISRVEAEDLGVYYCFQGSHVPYTFGGGTKLEIKRADAAPTVSIFPPSSEQLTSGGASVVCFLNNFYPKDINVKWKIDGSERQNGVLNSWTDQDSKDSTYSMSSTLTLTKDEYERHNSYTCEATHKTSTSPIVKSFNRNEC
B4: 9D9 DMAb mod #2 (antibody)
chain 1: EAKLQESGPVLVKPGASVKMSCKASGYTFTDYYMNWVKQSHGKSLEWIGVINPYNGDTSYNQKFKGKATLTVDKSSSTAYMELNSLTSEDSAVYYCARYYGSWFAYWGQGTLVTVSSAKTTPPSVYPLAPGCGDTTGSSVTLGCLVKGYFPESVTVTWNSGSLSSSVHTFPALLQSGLYTMSSSVTVPSSTWPSQTVTCSVAHPASSTTVDKKLEPSGPISTINPCPPCKECHKCPAPNLEGGPSVFIFPPNIKDVLMISLTPKVTCVVVDVSEDDPDVQISWFVNNVEVHTAQTQTHREDYNSTIRVVSTLPIQHQDWMSGKEFKCKVNNKDLPSPIERTISKIKGLVRAPQVYILPPPAEQLSRKDVSLTCLVVGFNPGDISVEWTSNGHTEENYKDTAPVLDSDGSYFIYSKLNMKTSKWEKTDSFSCNVRHEGLKNYYLKKTISRSPGK
chain 2: DIVMTQTTLSLPVSLGDQASISCRSSQSIVHSNGNTYLEWYLQKPGQSPKLLIYKVSNRFSGVPDRFSGSGSGTDFTLKISRVEAEDLGVYYCFQGSHVPYTFGGGTKLEIKRADAAPTVSIFPPSSEQLTSGGASVVCFLNNFYPKDINVKWKIDGSERQNGVLNSWTDQDSKDSTYSMSSTLTLTKDEYERHNSYTCEATHKTSTSPIVKSFNRNEC
B5: 9D9 standard (antibody)
chain 1: EAKLQESGPVLVKPGASVKMSCKASGYTFTDYYMNWVKQSHGKSLEWIGVINPYNGDTSYNQKFKGKATLTVDKSSSTAYMELNSLTSEDSAVYYCARYYGSWFAYWGQGTLITVSTAKTTPPSVYPLAPGCGDTTGSSVTLGCLVKGYFPESVTVTWNSGSLSSSVHTFPALLQSGLYTMSSSVTVPSSTWPSQTVTCSVAHPASSTTVDKKLEPSGPISTINPCPPCKECHKCPAPNLEGGPSVFIFPPNIKDVLMISLTPKVTCVVVDVSEDDPDVQISWFVNNVEVHTAQTQTHREDYNSTIRVVSTLPIQHQDWMSGKEFKCKVNNKDLPSPIERTISKIKGLVRAPQVYILPPPAEQLSRKDVSLTCLVVGFNPGDISVEWTSNGHTEENYKDTAPVLDSDGSYFIYSKLNMKTSKWEKTDSFSCNVRHEGLKNYYLKKTISRSPGK
chain 2: DIVMTQTTLSLPVSLGDQASISCRSSQSIVHSNGNTYLEWYLQKPGQSPKLLIYKVSNRFSGVPDRFSGSGSGTDFTLKISRVEAEDLGVYYCFQGSHVPYTFGGGTKLEIKRADAAPTVSIFPPSSEQLTSGGASVVCFLNNFYPKDINVKWKIDGSERQNGVLNSWTDQDSKDSTYSMSSTLTLTKDEYERHNSYTCEATHKTSTSPIVKSFNRNEC

Key:
mouse CTLA-4 protein = mouse CTLA-4 protein (mouse, UniProt P09793 36-161); assay: ELISA
Mouse CTLA4 = Mouse CTLA4 (mouse, UniProt P09793 36-161); assay: ELISA

Binder	IC50 (mouse CTLA-4 protein) [mg/L]	IC50 (Mouse CTLA4) [mg/L]
B1	0.0434	–
B2	0.0361	–
B3	0.0367	–
B4	0.0409	–
B5	–	0.0442
